{"source": "paper PMC3496993", "biological_target": "α2β1 integrin on K562 cells transfected with the α2 integrin subunit (not stated | human (endogenous in K562)) (UniProt P17301)", "sequence (P17301 30-1181, chain 1 of 2)": "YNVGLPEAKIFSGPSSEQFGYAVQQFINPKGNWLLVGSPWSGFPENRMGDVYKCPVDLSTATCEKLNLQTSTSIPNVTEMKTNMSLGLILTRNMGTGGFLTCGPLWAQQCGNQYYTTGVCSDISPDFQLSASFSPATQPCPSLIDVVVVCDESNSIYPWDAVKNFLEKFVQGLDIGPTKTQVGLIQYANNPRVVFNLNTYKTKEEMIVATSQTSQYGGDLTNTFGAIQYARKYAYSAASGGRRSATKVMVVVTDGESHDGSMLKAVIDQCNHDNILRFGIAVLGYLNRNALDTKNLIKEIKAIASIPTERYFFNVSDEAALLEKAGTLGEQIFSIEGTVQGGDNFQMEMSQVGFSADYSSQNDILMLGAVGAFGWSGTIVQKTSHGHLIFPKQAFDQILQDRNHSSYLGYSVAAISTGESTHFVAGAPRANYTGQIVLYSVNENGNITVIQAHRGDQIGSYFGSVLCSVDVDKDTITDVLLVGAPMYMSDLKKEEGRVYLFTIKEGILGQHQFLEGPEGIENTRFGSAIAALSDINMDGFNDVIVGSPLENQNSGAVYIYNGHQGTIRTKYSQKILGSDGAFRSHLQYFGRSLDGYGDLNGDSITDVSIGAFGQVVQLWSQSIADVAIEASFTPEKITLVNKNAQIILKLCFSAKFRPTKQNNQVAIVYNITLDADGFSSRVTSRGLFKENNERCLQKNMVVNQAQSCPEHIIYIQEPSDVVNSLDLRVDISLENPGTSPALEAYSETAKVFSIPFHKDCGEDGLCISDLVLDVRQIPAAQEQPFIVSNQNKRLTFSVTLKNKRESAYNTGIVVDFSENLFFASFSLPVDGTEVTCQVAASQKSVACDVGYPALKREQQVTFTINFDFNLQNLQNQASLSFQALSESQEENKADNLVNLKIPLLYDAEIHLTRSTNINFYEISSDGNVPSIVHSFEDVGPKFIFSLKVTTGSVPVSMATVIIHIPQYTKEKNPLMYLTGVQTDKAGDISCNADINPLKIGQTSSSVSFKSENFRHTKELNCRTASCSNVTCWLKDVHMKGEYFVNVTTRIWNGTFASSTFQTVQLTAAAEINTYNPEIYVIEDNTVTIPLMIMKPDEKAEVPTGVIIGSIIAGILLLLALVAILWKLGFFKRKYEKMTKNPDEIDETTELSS", "sequence (P05556 21-798, chain 2 of 2, further chain)": "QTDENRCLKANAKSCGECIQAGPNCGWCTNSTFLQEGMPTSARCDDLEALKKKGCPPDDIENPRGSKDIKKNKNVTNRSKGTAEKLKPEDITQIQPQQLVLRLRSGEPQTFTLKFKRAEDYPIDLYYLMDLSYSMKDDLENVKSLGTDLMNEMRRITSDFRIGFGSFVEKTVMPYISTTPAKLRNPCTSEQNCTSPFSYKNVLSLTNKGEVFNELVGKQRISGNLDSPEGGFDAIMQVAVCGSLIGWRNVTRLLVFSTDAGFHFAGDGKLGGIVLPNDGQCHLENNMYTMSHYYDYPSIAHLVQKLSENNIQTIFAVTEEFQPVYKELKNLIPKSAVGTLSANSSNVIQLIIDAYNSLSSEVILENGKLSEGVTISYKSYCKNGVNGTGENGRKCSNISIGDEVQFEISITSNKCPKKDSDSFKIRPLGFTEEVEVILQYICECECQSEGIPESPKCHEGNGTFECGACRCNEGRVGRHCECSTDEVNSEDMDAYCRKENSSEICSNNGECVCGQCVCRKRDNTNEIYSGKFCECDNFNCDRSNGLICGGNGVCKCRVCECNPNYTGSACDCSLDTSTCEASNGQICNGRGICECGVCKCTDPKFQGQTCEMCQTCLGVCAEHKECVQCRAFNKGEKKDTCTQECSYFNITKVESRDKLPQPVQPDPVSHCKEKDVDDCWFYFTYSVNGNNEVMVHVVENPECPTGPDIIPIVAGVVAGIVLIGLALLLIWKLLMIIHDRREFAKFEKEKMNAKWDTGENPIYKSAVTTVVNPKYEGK", "data": [{"substance": "Vixapatin (VP12), C-type lectin-like protein from Vipera xantina palestinae venom (complex)", "values": [{"measurement": "IC50 of inhibition of adhesion of α2K562 transfectants to immobilised collagen I (blocks collagen I with α2β1), dose-response of Vixapatin", "result": 3.2, "unit": "nM"}]}]}
